Data reported in publication PMC7060258, “A new multigene HCIQ subfamily from the sea anemone Heteractis crispa encodes Kunitz-peptides exhibiting neuroprotective activity against 6-hydroxydopamine” (Scientific Reports, 2020).
Numbering of substitutions follows the chain as printed. No end group written: not given here.

T1: human neutrophil elastase (human, UniProt P08246 30-267)
T1 sequence (looked up): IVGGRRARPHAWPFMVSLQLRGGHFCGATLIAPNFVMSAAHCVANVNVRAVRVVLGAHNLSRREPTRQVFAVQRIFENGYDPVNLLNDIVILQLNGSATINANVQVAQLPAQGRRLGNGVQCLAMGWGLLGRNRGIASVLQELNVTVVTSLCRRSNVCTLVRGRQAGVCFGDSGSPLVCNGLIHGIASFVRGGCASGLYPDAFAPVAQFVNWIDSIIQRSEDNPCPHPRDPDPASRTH

B1: recombinant HCIQ4c7 Kunitz-type peptide from Heteractis crispa (peptide)
chain: IQGNICSEPKKVGRCRESFPRFYFDSETGKCTPFIYGGCGGNGNNFETLHACRAICRA
modifications: not fully specified; cysteine pairing not given here
B2: recombinant HCIQ2c1 Kunitz-type peptide from Heteractis crispa (peptide, UniProt A0A6B7FBD3 28-85, looked up)
chain: B1 chain with E17G
notes: HCIQ2c1, Kunitz-type peptide of the sea anemone Heteractis crispa; mature peptide of 58 aa (precursor 85 aa: signal peptide 22 aa, propeptide 5 aa ending in Lys-Arg at 26-27, mature peptide 58 aa); begins with Ile-Gln; measured mass 6330 Da; numbers count on: the mature protein; also called rHCIQ2c1; source: E. coli BL21 (DE3), thioredoxin fusion, purified (Ni-NTA, CNBr cleavage, RP-HPLC)
B3: pancreatic kallikrein (enzyme)
chain: not shown
modifications: Species and supplier are not given; porcine pancreatic kallikrein is assumed as the usual commercial enzyme. Limits are the active chain of the candidate entry. The natural enzyme is glycosylated …

Columns and labels:
Conditions in all cases: both partners purified
[1] = molecular target: trypsin; assay: enzyme inhibition (Dixon method); trypsin 208 nM, substrate BAPNA 0.6 and 1.2 mM, peptide 0–26.6 µM (rHCIQ2c1) or 0–24 µM (rHCIQ4c7); three parallel experiments
Chain of trypsin (P00760 24-246): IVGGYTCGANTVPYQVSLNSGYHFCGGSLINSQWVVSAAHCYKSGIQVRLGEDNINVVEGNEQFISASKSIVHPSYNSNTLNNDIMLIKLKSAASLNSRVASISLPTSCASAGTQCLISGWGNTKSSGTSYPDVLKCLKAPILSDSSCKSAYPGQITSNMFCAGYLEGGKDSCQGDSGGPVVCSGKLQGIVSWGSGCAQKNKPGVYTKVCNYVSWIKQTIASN

[2] = molecular target: T1, human neutrophil elastase; assay: SPR; Biacore 3000; peptides covalently immobilised on a CM4 chip (970 RU rHCIQ2c1, 460 RU rHCIQ4c7); proteinases 1 nM to 5 μM flowed over; 25 °C; HBS: 0.15 M NaCl, 0.01 M HEPES, pH 7.4
[3] = molecular target: B2; assay: as above

Binder | Ki [1] [nM] | Ka [2] [M⁻¹] | Kd [2] [nM] | koff [2] [s⁻¹] | kon [2] [M⁻¹ s⁻¹] | Ka [3] [M⁻¹] | Kd [3] [nM] | koff [3] [s⁻¹] | kon [3] [M⁻¹ s⁻¹]
B1 | 190 | 1.05e+06 | 955 | 0.0114 | 11900 |  |  |  | 
B2 | 52 | 7.9e+06 | 127 | 0.00861 | 68000 |  |  |  | 
B3 |  |  |  |  |  | 2.04e+06 | 490 | 0.00379 | 49400
